Measurements from US20170253660A1.

Biological target: T1, B7-H3 on LAN-1 cells (human) (UniProt Q5ZPR3)
T1 sequence (looked up): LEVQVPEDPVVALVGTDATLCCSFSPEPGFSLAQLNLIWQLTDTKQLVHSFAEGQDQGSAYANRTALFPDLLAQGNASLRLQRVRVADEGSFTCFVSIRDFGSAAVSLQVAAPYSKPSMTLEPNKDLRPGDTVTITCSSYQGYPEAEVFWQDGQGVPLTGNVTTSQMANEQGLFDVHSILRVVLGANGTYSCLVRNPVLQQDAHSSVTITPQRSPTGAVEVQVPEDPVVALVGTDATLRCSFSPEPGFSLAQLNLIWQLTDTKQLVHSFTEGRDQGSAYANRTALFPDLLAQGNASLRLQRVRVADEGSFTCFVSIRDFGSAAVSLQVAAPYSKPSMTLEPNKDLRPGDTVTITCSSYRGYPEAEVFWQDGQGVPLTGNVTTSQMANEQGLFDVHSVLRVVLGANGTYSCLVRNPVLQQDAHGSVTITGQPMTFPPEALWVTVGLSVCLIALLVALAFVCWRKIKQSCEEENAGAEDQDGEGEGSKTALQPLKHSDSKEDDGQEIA
Assay: flow cytometry wash-off on LAN-1 cells, FITC-labeled goat anti-mouse second antibody

retention on cells after 10 washes (MFI as percent of the baseline after first wash): 80%
B1: 8H9 (antibody, INN chains, looked up, mouse IgG1, V domains shown)
VH: QVQLQQSGAELVKPGASVKLSCKASGYTFTNYDINWVRQRPEQGLEWIGWIFPGDGSTQYNEKFKGKATLTTDTSSSTAYMQLSRLTSEDSAVYFCARQTTATWFAYWGQGTLVTVSA
VL: DIVMTQSPATLSVTPGDRVSLSCRASQSISDYLHWYQQKSHESPRLLIKYASQSISGIPSRFSGSGSGSDFTLSINSVEPEDVGVYYCQNGHSFPLTFGAGTKLELK
